What was measured:
human PD-1 [1] = molecular target: T1, human PD-1 (human, UniProt Q15116 25-167, limits assumed); assay: cell-based or functional assay
cynomolgus monkey PD-1 = molecular target: T2, cynomolgus monkey PD-1 (cynomolgus monkey, UniProt B0LAJ3 25-170); assay: method not stated for this value (human value by Biacore)
T2 construct: also called cynomolgus PD-1

human PD-1 [2] = molecular target: T1, human PD-1; assay: Biacore (SPR)
Excerpt: PDR-001 was characterized in vitro for its affinity and activity on human PD-1. PDR-001 was expressed in a CHO cell line. PDR-001 bound with high affinity to human PD-1. […] In lymphocyte stimulation assays using human blood ex vivo, PDR-001 enhanced interleukin-2 (IL-2) production by approximately 2 fold in response to super antigen stimulation with Staphylococcus enterotoxin B (SEB).

T1 sequence (Q15116 25-167 limits assumed): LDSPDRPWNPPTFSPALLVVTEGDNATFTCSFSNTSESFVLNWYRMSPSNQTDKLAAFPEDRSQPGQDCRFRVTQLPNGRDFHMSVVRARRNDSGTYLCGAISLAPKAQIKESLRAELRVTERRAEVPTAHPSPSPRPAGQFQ
T2 sequence (B0LAJ3 entry or part of it limits assumed, form in doubt): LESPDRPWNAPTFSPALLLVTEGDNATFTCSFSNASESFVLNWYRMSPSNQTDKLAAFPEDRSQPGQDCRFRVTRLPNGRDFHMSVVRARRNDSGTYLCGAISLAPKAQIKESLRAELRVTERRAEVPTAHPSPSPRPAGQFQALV

Kd (cynomolgus monkey PD-1): 930 pM
Kd (human PD-1 [2]): 830 pM
B1: PDR-001 (antibody, IgG4, V domains shown)
VH: EVQLVQSGAEVKKPGESLRISCKGSGYTFTTYWMHWVRQATGQGLEWMGNIYPGTGGSNFDEKFKNRVTITADKSTSTAYMELSSLRSEDTAVYYCTRWTTGTGAYWGQGTTVTVSS
VL: EIVLTQSPATLSLSPGERATLSCKSSQSLLDSGNQKNFLTWYQQKPGQAPRLLIYWASTRESGVPSRFSGSGSGTDFTFTISSLEAEDAATYYCQNDYSYPYTFGQGTKVEIK
notes: also called BAP049-Clone-E (variable regions)
interleukin-2 (IL-2) production in lymphocyte stimulation assays using human blood ex vivo, super antigen stimulation with Staphylococcus enterotoxin B (SEB) (human PD-1 [1]): ~2 fold
